Assay [1] concerns the target Murine CD40L on the Th2 cell line D10.G4.1 (murine) (UniProt P27548).
In assay [2] the target is TRAIL R2-Fc fusion protein (human) (UniProt O14763). Put plainly: competition ELISA: inhibition of binding of 0.75 nM biotinylated TRAIL R2-Fc to plate-coated A9(1C12).
The target is the same in assay [3]. The assay can be described thus: competition ELISA on plate-coated A9(1C12). Background: An ELISA detects its analyte on a solid surface through an enzyme-linked reagent.
The target of assay [4] is Murine CD40L on the Th2 cell line D10.G4.1 (murine, UniProt P27548). The assay can be described thus: cell-based or functional assay.
Assay [5] addresses recombinant Murine CD40L (E. coli produced) (murine, UniProt P27548). Put plainly: biosensor competition: inhibition of Murine CD40L (0.5 µg/ml) binding to immobilised Murine CD40-Fc.
Assay [6] deals with TRAIL R2 (recombinant, form not given) (human, UniProt O14763, biotin (in the capture ELISA and the competition ELISA of Example 14)). The assay can be described thus: SPR (ProteOn XPR36), TRAIL R2 immobilised, equilibrium analysis.
In assay [7] the target is TRAIL R2 expressed on the cell surface (human, UniProt O14763). The assay can be described thus: cell-based or functional assay.

Values joined by “and” are separate entries in the source; they are usually repeats but may differ in a detail not shown here. Equal values may be shown once. Some results are limits rather than exact numbers.

Experimental findings from US9212231B2, “TRAIL R2-specific multimeric scaffolds” (MEDIMMUNE, LLC, dated 2015) are described below.

Sequence of TRAIL R2-Fc fusion protein (human) (O14763 56-182 limits assumed): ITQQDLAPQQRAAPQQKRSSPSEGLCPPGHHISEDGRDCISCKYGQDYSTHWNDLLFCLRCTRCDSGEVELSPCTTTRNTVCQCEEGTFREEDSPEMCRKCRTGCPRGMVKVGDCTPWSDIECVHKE

For the molecule MR1 antibody, in assay [1], the IC50, inhibition of Murine CD40L-induced CD86 expression on CD19 gated B cells turned out to be 100 µM.

B1: A2(1E11) (designed binder)
chain: SGGGGSAIEVKDVTDTTALITWAKPWVDPPPLWGCELAYGIKDVPGDRTTIDLQQKHTAYSIGNLKPDTEYEVSLICFDPYGAKSNPAKETFTTGGGGSGGGGSGGGGSAIEVKDVTDTTALITWAKPWVDPPPLWGCELAYGIKDVPGDRTTIDLQQKHTAYSIGNLKPDTEYEVSLICFDPYGAKSNPAKETFTTGGGGSGGGGSGTLGHHHHHHHH
Turning to B1, the IC50 (usually the concentration at which inhibition is half-maximal) in assay [2] amounted to 0.5 nM. In assay [3], the fold higher affinity relative to the monomeric A1 protein lay in the range of 30 to 40 fold and the fold lower IC50 than the monomer A1 was > 30 fold.

B2: C4(M13) (designed binder)
chain: AIEVKDVTDTTALITWHDAFGYDFGCELTYGIKDVPGDRTTIDLPDHFHNYSIGNLKPDTEYEVSLICANDHGFDSNPAKETFTTGGGGSGGGGSGGGGSGGGGSGGGGSGGGGSGGGGSRLDAPGQIEVKDVTDTTALITWHDAFGYDFGCELTYGIKDVPGDRTTIDLPDHFHNYSIGNLKPDTEYEVSLICANDHGFDSNPAKETFTTGGGTLGHHHHHHHH
For B2, the “IC50, inhibition of Murine CD40L-induced CD86 expression on CD19 gated B cells” value in assay [4] lay within 100 to 200 µM. The IC50 in assay [5] was 5 nM and 6 nM.

B3: A1(1E11) (designed binder)
chain: AIEVKDVTDTTALITWAKPWVDPPPLWGCELAYGIKDVPGDRTTIDLQQKHTAYSIGNLKPDTEYEVSLICFDPYGAKSNPAKETFTTGGGTLGHHHHHHHH
In turn, B3 came in with an IC50 in assay [2] of 16 nM. In assay [6], the “Fold Improvement (Kd, against lead clone 1C12)” value was 40 fold and the Kd (in general, a measure of binding affinity in units of concentration) is 103 nM.

B4: A3(1E11) (designed binder)
chain: SGGGGSAIEVKDVTDTTALITWAKPWVDPPPLWGCELAYGIKDVPGDRTTIDLQQKHTAYSIGNLKPDTEYEVSLICFDPYGAKSNPAKETFTTGGGGSGGGGSGGGGSAIEVKDVTDTTALITWAKPWVDPPPLWGCELAYGIKDVPGDRTTIDLQQKHTAYSIGNLKPDTEYEVSLICFDPYGAKSNPAKETFTTGGGGSGGGGSGGGGSAIEVKDVTDTTALITWAKPWVDPPPLWGCELAYGIKDVPGDRTTIDLQQKHTAYSIGNLKPDTEYEVSLICFDPYGAKSNPAKETFTTGGGGSGGGGSGGGGSAIEVKDVTDTTALITWAKPWVDPPPLWGCELAYGIKDVPGDRTTIDLQQKHTAYSIGNLKPDTEYEVSLICFDPYGAKSNPAKETFTTGGGGSGGGGSGTLGHHHHHHHH
Regarding B4, the IC50 in assay [2] was 0.4 nM. Further, in assay [7], the “EC50, killing of H2122 cells” value turned out to be 0.013 nM and the “Maximum Inhibition %, H2122 cells” value stood at 91%. In addition, in assay [3], the fold higher affinity relative to the monomeric A1 protein is 30 to 40 fold and the fold lower IC50 than the monomer A1 was > 30 fold.
